Biological target: T1, human heterodimeric single-chain CD3εγ extracellular domain (human, UniProt P07766 23-126; P09693 23-116)
T1 construct: extracellular domain; Produced in-house; single-chain protein of the extracellular domains of CD3ε and CD3γ joined by a flexible linker; also called scCD3γε; human CD3ge
Test: SPR (MASS-1), human scCD3εγ ECD immobilized, scDb injected

T1 sequence (P07766 23-126, chain 1 of 2): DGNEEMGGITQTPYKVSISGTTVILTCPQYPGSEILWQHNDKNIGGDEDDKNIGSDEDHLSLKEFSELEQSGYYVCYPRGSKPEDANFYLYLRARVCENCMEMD
T1 sequence (P09693 23-116, chain 2 of 2): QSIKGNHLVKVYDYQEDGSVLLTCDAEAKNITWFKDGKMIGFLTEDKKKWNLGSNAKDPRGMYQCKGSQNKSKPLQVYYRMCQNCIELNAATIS

Kd | Molecule
11.5 nM | Construct 1 (anti-CD3×anti-IL5R scDb comprising the humanized variable domain of clone-06) (bispecific antibody) DIQMTQSPSSLSASVGDRVTITCQASQNIYSNLAWYQQKPGKAPKLLIYRASTLASGVPSRFSGSGSGTDFTLTISSLQPEDFATYYCQSNYGINYYGAAFGQGTKLTVLGGGGGSEVQLVESGGGLVQPGGSLRLSCAASGFPLSSYAMIWVRQAPGKGLEWIGMILRAGNIYYASWVKGRFTISRDNSKNTVYLQMNSLRAEDTAVYYCARRHYNREGYPIGIGDLWGQGTLVTVSSGGGGSGGGGSGGGGSGGGGSDIQMTQSPSSLSASVGDRVTITCQSSESVYNNKRLSWYQQKPGKAPKLLIYTASSLASGVPSRFSGSGSGTDFTLTISSLQPEDFATYYCQGEFTCSNADCFTFGQGTKLTVLGGGGGSEVQLVESGGGLVQPGGSLRLSCAASGFSLSSYDMTWVRQAPGKGLEWIGIIYVSGSAYYASWAKGRFTISRDNSKNTVYLQMNSLRAEDTAVYYCARINYGLDLWGQGTLVTVSS
29.6 nM | Construct 2 (anti-CD3×anti-IL5R scDb comprising the humanized variable domain of clone-02) (bispecific antibody) DIQMTQSPSSLSASVGDRVTITCQASQNIYSNLAWYQQKPGKAPKLLIYRASTLASGVPSRFSGSGSGTDFTLTISSLQPEDFATYYCQSNYGINYYGAAFGQGTKLTVLGGGGGSEVQLVESGGGLVQPGGSLRLSCAASGFPLSAYAMIWVRQAPGKGLEWIGMIIRSGTVYYANWAKGRFTISRDNSKNTVYLQMNSLRAEDTAVYYCARRHYNADGYPIGIGDLWGQGTLVTVSSGGGGSGGGGSGGGGSGGGGSDIQMTQSPSSLSASVGDRVTITCQSSESVYSNNRLSWYQQKPGKAPKLLIYSASTLASGVPSRFSGSGSGTDFTLTISSLQPEDFATYYCQGEFSCSSVDCFSFGQGTKLTVLGGGGGSEVQLVESGGGLVQPGGSLRLSCAASGFSLSSYDMTWVRQAPGKGLEWIGIIYVSGSAYYASWAKGRFTISRDNSKNTVYLQMNSLRAEDTAVYYCARINYGLDLWGQGTLVTVSS
123 nM | Construct 3 (anti-CD3×anti-IL5R scDb comprising the humanized variable domain of clone-03) (bispecific antibody) DIQMTQSPSSLSASVGDRVTITCQASQNIYSNLAWYQQKPGKAPKLLIYRASTLASGVPSRFSGSGSGTDFTLTISSLQPEDFATYYCQSNYGINYYGAAFGQGTKLTVLGGGGGSEVQLVESGGGLVQPGGSLRLSCAVSGFPLNRYAMLWVRQAPGKGLEWIGLITRADKKYYASWAKGRFTISKDNSKNTVYLQMNSLRAEDTAVYYCARRHYNTDGYPIAIGDLWGQGTLVTVSSGGGGSGGGGSGGGGSGGGGSDIQMTQSPSSLSASVGDRVTISCQSNENIYSNNRLSWYQQKPGKAPKLLIYSASSLASGVPSRFSGSGSGTDFTLTISDLEPEDFATYYCQGEFNCNSADCFTFGQGTKLTVLGGGGGSEVQLVESGGGLVQPGGSLRLSCAASGFSLSSYDMTWVRQAPGKGLEWIGIIYVSGSAYYASWAKGRFTISRDNSKNTVYLQMNSLRAEDTAVYYCARINYGLDLWGQGTLVTVSS

Biological target: T2, human CD3ε expressed on the cell surface of T cells (Jurkat clone E6-1; human CD8+ T cells) (human, UniProt P07766 23-207)
T2 sequence (P07766 23-207): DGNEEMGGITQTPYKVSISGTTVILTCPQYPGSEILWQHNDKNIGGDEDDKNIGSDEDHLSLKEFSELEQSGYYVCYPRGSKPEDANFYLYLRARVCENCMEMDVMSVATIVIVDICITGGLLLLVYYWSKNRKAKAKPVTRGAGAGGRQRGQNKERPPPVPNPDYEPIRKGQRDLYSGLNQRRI
Test: cell-based or functional assay

Fold increase in CD69 expression [MFI normalized to neg. ctrl.], 1.25 µg/ml anti-CD3 IgG, cross-linked, Jurkat cells, 24 h | Fold increase in CD69 expression [MFI normalized to neg. ctrl.], 5 µg/ml anti-CD3 IgG, cross-linked, Jurkat cells, 24 h | Fold increase in CD69 expression [MFI normalized to neg. ctrl.], 20 µg/ml anti-CD3 IgG, cross-linked, Jurkat cells, 24 h | Molecule
3.3 fold | 4.6 fold | 7.4 fold | clone-02 (antibody, V domains shown) VH: QSLEESGGRLVTPGTPLTLTCTVSGFPLSAYAMIWVRQAPGKGLEWIGMIIRSGTVYYANWAKGRFTISKTSTTVDLKITSPTTEDTATYFCARRHYNADGYPIGIGDLWGPGTLVTVSS VL: AQVLTQTPSSVSAVVGGTVTISCQSSESVYSNNRLSWFQQKPGQPPKLLIYSASTLASGVPSRFKGSGSGTQFTLTITDLECDDAATYFCQGEFSCSSVDCFSFGGGTEVVVKG
2.7 fold | 5.1 fold | 5.3 fold | clone-06 (antibody, V domains shown) VH: QSVEESGGRLVTPGTPLTLTCTVSGFPLSSYAMIWVRQAPGKGLEWIGMILRAGNIYYASWVKGRVTISKTSTTVDLKITSPTTEDTATYFCARRHYNREGYPIGIGDLWGPGTLVTVSS VL: AQVLTQTPSSVSAAVGGTVTISCQSSESVYNNKRLSWFQQKPGQPPKQLIYTASSLASGVPSRFKGSGSGTQFTLTISDLECDDAATYYCQGEFTCSNADCFTFGGGTEVVVKG
2.6 fold | 3.5 fold | 7.8 fold | clone-04 (antibody, V domains shown) VH: QSLEESGGRLVKPDETLTLTCTVSGFPLSSYAMGWFRQAPGKGLEWIGMILRSDNTYYASWAKGRFTISKTSTTVDLKITSPTTEDTATYFCARRHYNASGNPIAIGDLWGPGTLVTVSS VL: AQVLTQTPSSVSAAVGGTVTINCQSSQSVYNNNRLSWFQQKPGQPPKLLIYTTSSLASGVPSRFKGSGSGTEFTLTISDLECADAATYYCQGEFSCSRADCFNFGGGTEVVVKG
2.6 fold | 4.6 fold | 6.6 fold | clone-03 (antibody, V domains shown) VH: QSLEESGGRLVTPGTPLTLTCTVSGFPLNRYAMLWVRQAPGKGLEWIGLITRADKKYYASWAKGRFTISKTSTTVDLEITGPTTEDTATYFCARRHYNTDGYPIAIGDLWGPGTLVTVSS VL: AQVLTQTPSSVSAAVGGTVTISCQSNENIYSNNRLSWFQQKPGQPPNQLIYSASSLASGVPSRFKGSGSGTQFTLTISDLECDDAATYYCQGEFNCNSADCFTFGGGTEVVVKG
2.6 fold | 4.2 fold | 6.2 fold | clone-10 (antibody, V domains shown) VH: QSLEESGGRLVTPGTPLTLTCTVSGFPLSSFAMLWVRQAPGKGLEWIGMIMRAHNMYYASWAKGRFTISKTSTTVDLEITSPTTEDTATYFCARRHYNTYGYPIAIGDLWGPGTLVTVSS VL: AQVLTQTPSSVSAAVGGTATISCQSNENIYSNNRLSWFQQKAGQPPNQLIYSASSLASGVPSRFKGSGSGTQFTLTISDLECDDAATYYCQGEFSCSSADCFTFGGGTEVVVKG

Biological target: human CD3ε expressed on the cell surface of T cells (Jurkat clone E6-1; human CD8+ T cells) (human) (UniProt P07766)
Sequence (P07766 23-207): as the sequence (P07766 23-207) above
Test: cell-based or functional assay

Fold increase in CD69 expression [MFI normalized to neg. ctrl.], 1.25 µg/ml anti-CD3 IgG, cross-linked, Jurkat cells, 24 h | Fold increase in CD69 expression [MFI normalized to neg. ctrl.], 5 µg/ml anti-CD3 IgG, cross-linked, Jurkat cells, 24 h | Fold increase in CD69 expression [MFI normalized to neg. ctrl.], 20 µg/ml anti-CD3 IgG, cross-linked, Jurkat cells, 24 h | Molecule
1.6 fold | 2.2 fold | 3 fold | TR66 (antibody)
1.8 fold | 2.5 fold | 3.1 fold | OKT3 (antibody)

Biological target: T2, human CD3ε expressed on the cell …
Test: cell-based or functional assay
Remark: another data set of the same source

Potency to lyse target cells [EC50] (CHO-IL5R cells, human CD8+ T cells, 88 h) | Potency to stimulate IL-2 secretion by T cells [EC50] (CD8+ T cells with CHO-IL5R cells, 16 h) | Molecule
0.1 nM | 0.96 nM | Construct 1 (anti-CD3×anti-IL5R scDb comprising the humanized variable domain of clone-06) (bispecific antibody) DIQMTQSPSSLSASVGDRVTITCQASQNIYSNLAWYQQKPGKAPKLLIYRASTLASGVPSRFSGSGSGTDFTLTISSLQPEDFATYYCQSNYGINYYGAAFGQGTKLTVLGGGGGSEVQLVESGGGLVQPGGSLRLSCAASGFPLSSYAMIWVRQAPGKGLEWIGMILRAGNIYYASWVKGRFTISRDNSKNTVYLQMNSLRAEDTAVYYCARRHYNREGYPIGIGDLWGQGTLVTVSSGGGGSGGGGSGGGGSGGGGSDIQMTQSPSSLSASVGDRVTITCQSSESVYNNKRLSWYQQKPGKAPKLLIYTASSLASGVPSRFSGSGSGTDFTLTISSLQPEDFATYYCQGEFTCSNADCFTFGQGTKLTVLGGGGGSEVQLVESGGGLVQPGGSLRLSCAASGFSLSSYDMTWVRQAPGKGLEWIGIIYVSGSAYYASWAKGRFTISRDNSKNTVYLQMNSLRAEDTAVYYCARINYGLDLWGQGTLVTVSS
– | 5.67 nM | Construct 2 (anti-CD3×anti-IL5R scDb comprising the humanized variable domain of clone-02) (bispecific antibody) DIQMTQSPSSLSASVGDRVTITCQASQNIYSNLAWYQQKPGKAPKLLIYRASTLASGVPSRFSGSGSGTDFTLTISSLQPEDFATYYCQSNYGINYYGAAFGQGTKLTVLGGGGGSEVQLVESGGGLVQPGGSLRLSCAASGFPLSAYAMIWVRQAPGKGLEWIGMIIRSGTVYYANWAKGRFTISRDNSKNTVYLQMNSLRAEDTAVYYCARRHYNADGYPIGIGDLWGQGTLVTVSSGGGGSGGGGSGGGGSGGGGSDIQMTQSPSSLSASVGDRVTITCQSSESVYSNNRLSWYQQKPGKAPKLLIYSASTLASGVPSRFSGSGSGTDFTLTISSLQPEDFATYYCQGEFSCSSVDCFSFGQGTKLTVLGGGGGSEVQLVESGGGLVQPGGSLRLSCAASGFSLSSYDMTWVRQAPGKGLEWIGIIYVSGSAYYASWAKGRFTISRDNSKNTVYLQMNSLRAEDTAVYYCARINYGLDLWGQGTLVTVSS

Reference: patent publication US20160090416A1 (NUMAB, published 2016)
